Reference: the nanobody polyreactivity screen of Harvey et al. (2022)

Assay: yeast display, Sf9 membrane polyspecificity reagent, FACS + sequencing; frameworks hold sequencing errors
Outline: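 A synthetic nanobody library was expressed on Saccharomyces cerevisiae BJ5465 by galactose induction for 36–48 hours. The library was stained for 1 hour at 4 °C with 10% biotinylated, detergent-solubilized Sf9 membrane reagent and enriched with streptavidin microbeads before FACS. Low and high (top ~1%) gates were set on anti-HA fluorescence for expression and streptavidin fluorescence for reagent binding, and each polyreactivity label reflects the gate of origin.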

| Sequence | polyreactivity (PSR sort gate) |
| --- | --- |
| QVQLVESGGGLVQAGGSLRLSCAASGFNYSQYAMGWYRQAPGKERELVAAITTTGGSTYYADSVKGRFTISRDNAKNTVYLQMNSLKPDDTAVYYCAARYVRTVRGGYWGQGTQVTVSS | high polyreactivity |
| QVQLVESGGGLVQAGGSLRLSCAASGRTFSKYAMGWYRQAPGKERELVAAISSTGGSTYYADSVKGRFTISRDNAKNTVYLQMNSLIPEDTAVYYCATEVYWFHSRAYYYWGQGSQVTVSS | high polyreactivity |
| QVQLVESGGGLVQAGGSLRLSCAASGSIFVPYAMGWYRQAPGKERELVAAISSRGGRTYYADSVKGRFTISRDNAKNTVYLQMNSLKPEDTAVYYCNKTAGSHIPRLEYWGQGTQVTVSS | low polyreactivity |
| QDHLVDSGGGLVQAGGSLRLSCDASGRIFRWYTMGWYRQAPGKERELVATITSSGITSYADSVKGRFTISRDNAKNTDYLQMNSLKPEDTAVYYCAADHYYYIHGYDYWGQGTQVTVSS | high polyreactivity |
| QVQLVESGGGLVQAGGSLRLSCAASGRTFPLNAMGWYRQAPGKERELVASITKSTGNTRYADSVKGRFTISRDNAKNTVYLQMNSLKPEDTAVYYCAARSYRDRYYWGQGTQVNVSS | high polyreactivity |
| QVQLVESGGGLVQAGGSLRLSCAASGIIFRANAMGWYRQAPGKERELVAAISGRGSSTTYADSVKGRFTISRDNAKNTVYLQMNSLKPEDTAVYYCAAAGWSARGYNYWGQGTQVTVSS | high polyreactivity |
| QVQLVESGGGLVQAGGSLRLSCAASGSTLYHYDMGWYRQAPGKERELVAAITTSGDSTYYADSVKGRFTISRDNAKNTVYLQMNSLKPEDTAVYYCNADVFKTVFYIDRYYYWGQGTQVTVSS | low polyreactivity |
| QVQLVESGGGLVQAGGSLRLSCAASGSTFYGYAMGWYRQAPGKERELVAAISVRAGITYYADSVKGRFTISRDNAKNTVYLQMNSLKPEDTAVYYCAKDHWTTSYDEGDYWGQGTQVTVSS | low polyreactivity |
| QVQLVESGGGIVQAGGSLRLSCAASGSIFRWNAMGWYRQAPGKESELVAAIRWSSGSTYYADSVKGRFTISRDNAKNTVYLQMNSLKPEDTAVYYCAASRATIKYPKREYWGQGTQVTVSS | high polyreactivity |
| QVQHVESGGGLVQAGGSLRLSCAASGRTFNYYAMGWYRQAPGKERELVAAISSSGGRTYYADSVKGRFTISRDNAKNTVYLQMNSLKPEDTAVYYCAADSFYYRPEYDYWGQGTQVTVSS | low polyreactivity |
| QVQLVESGGGLVQAGGSLRLSCAASGSTFGYNDMGWYRQAPGKERELVAAISVSDSSTYYADSVKGRFTISRDYAKNTVYLQMNCLKPEDTAVYYCAAEYYVGFTYRYEYWGQGTQVTVSS | low polyreactivity |
| QVQLVESGGGLVQAGASLRLSCAASGIILSVYAMGWYRQAPGKERELVAAITTVGNTYYADSVKGRFTISRDNAKNTVYLEMNCLKPEDTAVYYCAAKRWTTYKYNYWGQGTQVTVSS | high polyreactivity |
| QVQLVESGGGLVQAGGSLRLSCAASGFTLLTYVMGWYRQAPGKERELVAAISKSGSRTYYADSVKGRFTISRDNAKNTVYVQMNSLKPEDTPVYYCAADTSAYRYDYWGQGTQVTVSS | high polyreactivity |
| QVQLVESGGGLVQAGGSLRLSCAASGSTFGSYAMGWYRQAPGKERELVASISSRGGSTYYADSVKGRFTISRDNAKNTVYLQMNSLKPEDTAVYYCPATRYSAYSRGKYNFWGQGTQVTVSS | high polyreactivity |
| QVQLVESGGGLVQAGGSLRLSCAASGSIFRAYAMGWYRQAPGKERELVAAITWSGGRTFYADSVKGRFTISRDNAKNTVYLQMNSLKPEDTAVYYCAAFVYQRGRIYDYWGQGTQVTVSS | high polyreactivity |
| QVQLVESGGGLVQAGGSLRLSCAASGRTFEYYAMGWYRQAPGKERELVAAITYSGDSTYYADSVKGRFTISRDNAKNTVYLQMNSLKPEDTAVYYCAADWSSLKDDYWGQGTQVTVSS | low polyreactivity |
| QVHLVESGGGLVQAGGSLRLSCAASGSIFVLYAMGWYRQAPGKERELVAAISRGVGGTNYADSVKGRFTISRDNAKNTVYLQMNSLKPEDTAVYYCAADWLWAWHYYGAMDYWGQGTQVTVSS | high polyreactivity |
| QVHLVESGGGLVQAGGSLRLSCAASGSIFGSYAMGWYRQAPGKERELVAAITIADITYYADSVKGRFTISRDNAKNTVNLQMNSLKPEDTAVYYCNAYWGWRDSWYYYWGQGTQVTVSS | low polyreactivity |
| QVQLVESGGGLVQAGGSLRLSCAASGITFSYYAMGWYRQAPGKERELVAAISGSGTSTYYADSVKGRFTISRDNAKNTVYFQMNSLKPEDTAVYYCAAGPPRKPGYYYWGQGTQVTVSS | high polyreactivity |
| QVQLVESGGGLVQAGGSLRISCAASGSTFYKYDMGWYRQAPGKEREFVAVISRSGGNTYYADSVKGRFTISRDNAKNTVYLQMNSLKPEDTAVSYCAADNYPDEYDYWGQGTQVTVSS | low polyreactivity |
| QVQLVESGGGLVQAGGSLRLSCAASGSTFYWYTMGWYRQAPGKERELVARISSSGSTNYADSVKGRFTISRDNAKNTVYLQMNSLKPEDTAVYYCNKDWIYRGYDYWGQGTQVTVSS | high polyreactivity |
| QVQLVESGGGLVQAGGSLRLSCAASGRTFFVYAMGWYRQAPGKVRELVAAISNTGGRTYYADSVKGRFTISRDNAKNTVYLQMNSLKPEDTAVYYCAAPYSGPYRSYEYYWGQGTQVTVSS | low polyreactivity |

| Sequence | polyreactivity (PSR sort gate) |
| --- | --- |
| QVQLVESGGGLVQAGGSLRLSCAASGRIFGWYAMGWYRQAPGKERELVAAISSGGRTNYADSVKGRFTISRDNAKNTVYLQMNSLKPEDTAVYYCNARRTYLPYKFGYDYWGQGTQVTVSS | low polyreactivity |
| QVQLVESGGGLVQAGGSLRLSCAASGLTLTPYVMGWYRQAPGKEREFVAAITYTGGRTYYADSVKGRFTISRDNAKNTVYLKMNSLKPEDTAVYDCNKGYYQTWPRYYSWGQGTQVTVSS | high polyreactivity |
| QVQLVESGGGLVQAGGSLRLSCAASGRIFPTYAMGWYRQAPGKERELVAGITSGGRTNYADSVKGRFTISRDNAKNTVYLQMNSLKPEDTAVYYCAKRVWPRDQYGKRNPRMDYWGQGTQVTVSS | high polyreactivity |
| QVQLVESGGGLVQAGGSLRLSCAASGITFLDNVMGWYRQAPGKERELVADINSIGTSTSYADSVKGRFTISRDNAKNTVYLQMNSLKPEDTAVYYCAADTGLEDYDYWGQGTQVTVSS | low polyreactivity |
| QVQLVESGGGLVQAGGSLRLSCAASGRIFSYYAMGWYRQAPGKEREFVATITYAGGSTYYADSVKGRFTISRDNAKNTVYFQMNSLKPEDTAVYYCAARGYSYRGWRMDYWGQGTQVTVSS | high polyreactivity |
| QVQLVESGGGLVQAGGSLRLSCAASGRTFFINTMGWYRQAPGKERELVAAITWSGGSTYYADSVKGRFTISRDNAKNTVYLQMNSLKPEDTAVYYCAAVYVYRPDIIYVEVAYDYWGQGTQVTVSS | low polyreactivity |
| QVQLVESGGGLVQAGGSLRLSCAASGFIFLYNAMGWYRQAPGKERELVATITSGGSTNYADSVKGRFTISRDNAKNTVYLQMNSLKPEDTAVYYCAVRRKAYYSYYYHDPYYYWGQGTQVTVSS | low polyreactivity |
| QVQLVESGGGLVQAGGSLRLSSAASGSIFYVYAMGWYRQAPGKERELVAAISRRGARTYYADSVKGRFTISRDNEKNTVYLQMNILKPEDTAVYYCYADQYHTVGYSAEYEYWGQGTQVTVSS | low polyreactivity |
| QVQHVESGGGLVQAGGSLRLSCPASGSIFARYAMGWYRQAPGKERELVAAITSGGITNYADSVMGRFTISRDNAKNTVYLQMISLNPEDTAVYYCAARRSGRVRYDYWGQGTQVTVSS | high polyreactivity |
| QVQLVESGGGLVQAGGSLRLSCAASGITFTYYAMGWYRQAPGKERELVDAITDRGGRTYYSDSVKGRFTISRDNAKNTVYIQMNSLKPEDTAVYYCAAYVPQGYKLYYWGQGTQVTVSS | high polyreactivity |
| QVQLVESGGGLVQAGGSLRLSCAASGIIFRSYAMGWYRQAPGKERELVAGISRRGGSTYYADSVKGRFTISRDNAKNTVYLQMNSLKPEDTAVYYCAKEVAYKPTGYDYWGQGTQVTVSS | high polyreactivity |
| QVQLVESGGGLVQAGGSLRLSCAASGRINYFYAIVWSRQAPGKEQELVAAISTSGGSTYYADCVKGRFTISRDNAKNTLYLQMNSLTPEETAVYDCAARFRYYGSEYDYWGQGTQVTVSS | low polyreactivity |
| QVQLVESGGGLVQAGGSLRLSCAASGSIFTPYTMVWYRQAPGKERELVAAIRPNSGSTYYADSVKGRFTISRDNAKNTVYLQLNSLKPEDTAVYYCNAQCYGPGGGYFWSYDYWGQGTQVTVSS | low polyreactivity |
| QVQLVESRGGLVQAGGSLRLSSAASAFIFGSNAMGWYRQAPGKERELVAAISRSGGSTYYADSVKGRFTISRDNAKKTVYLQMNSLKPEDTAVYYCNVDLWPFVYSWWSYDYWGPGTQVTVSS | high polyreactivity |
| QVQLVESGGGLVQAGGSLRLSCAASGIIFWFYAMGWNRQAPGKERELVAAISGDGDSTYYADSVKGRFTISRDNAKNTVYLQMNSLKPEDTAVYYCAAEWDPVFATDEDDYWGQGTQVTVSS | low polyreactivity |
| QVQLVESGGGLVQAGGSLRLSCAASGSTFRFYTMGWYRQAPGKERELVAAISGSGGSTYYADSVKGRFTISRDNAKNTVYLQMNSLKPEDTAVYYCAADKSRYASHRGYWGQGTQVTVSS | low polyreactivity |
| QVQLVESGGGLVQAGGSLRLSCAASGRTFYRYAMGWYRQAPGKEREFVAAISNGGSNTRYADSVKGRFTISRDNATNTVYLQMNSLKPEDTAVYYCAASAYQHYNWGQGTQVTVSS | high polyreactivity |
| QVQLVESGGGLVQAGGSLRLSCAASGFIFSSYAMGWYRQAPGKERELVAAISRSGGRTYYADSVKGRFTISRDNAKNTVYLQMNSLKPEDTAVYYCAAKRWWQYYWGQGTQVTVSS | high polyreactivity |
| QLQLVESGGGLVQAGGSLRLSCAASGSTFATYAMGWYRQAPGKESELVAVITRGGSTYYADSVKGRFTISRDNAKNTVYLQMNSLKPEDTAVYYCAAKAYTYYARIGFDYWGQGTQVTVSS | high polyreactivity |
| QVLLVESGGCLVQEGGSLRFSCAASGFIFAYYAMGWYRPAPGKERELVAAITSDGATYYADSVKGRFTISRDNAKNTVYLQMNSLKPEATAVYYCNTYWLLRPGYIYWGQGTQVTVSS | high polyreactivity |
| QVQLVESGRGLVQAGGSLRLSCAASGRIFTTDVMGWDRQAPGKERELFAAISARGSTYYADYVKWRFTISRDNAKNTVYLHMNSLKPEDTAVYYFAKKGWSSHERAWYIYDYWGQGTQVTVSS | low polyreactivity |
